Here are results for one molecule from US7863432 (FORSCHUNGSVERBUND BERLIN E V, dated 2011).

In this assay the target is T1, RIIα-YFP fusion protein (regulatory subunit RIIα of human protein kinase A fused to yellow-fluorescent … (human, UniProt P13861 2-404)).
T1 construct: whole, on cells; Expressed inside transfected HEK293 or CD8 cells (diffuse, cytosolic); also called regulatory RIIα subunit of PKA; not shown: yellow-fluorescent protein (YFP) encoded by vector pEYFP (BD Biosciences Clontech)
The assay can be described thus: FRET in two co-transfected HEK293 cells, time 0 min before peptide addition. The procedure: FRET measurements were performed 24-48 hours after transfection, using an epifluorescence microscope (Axiovert 200M, Carl Zeiss, Jena, Germany). The data were stored using the Openlab 2.25 software (Improvision, Coventry GB). Fluorescence was excited at a wavelength of 425 nm for CFP and 488 nm for YFP. […] Non-specific background fluorescence was determined in a region with no cells and subtracted.
This peptide inhibits the interaction between AKAP and regulatory PKA subunits in general (Klussmann et al., J. Biol. Chem. 274, 4934-4938, 1999; see schematic diagram in FIGS. 5A and B).

T1 sequence (P13861 2-404): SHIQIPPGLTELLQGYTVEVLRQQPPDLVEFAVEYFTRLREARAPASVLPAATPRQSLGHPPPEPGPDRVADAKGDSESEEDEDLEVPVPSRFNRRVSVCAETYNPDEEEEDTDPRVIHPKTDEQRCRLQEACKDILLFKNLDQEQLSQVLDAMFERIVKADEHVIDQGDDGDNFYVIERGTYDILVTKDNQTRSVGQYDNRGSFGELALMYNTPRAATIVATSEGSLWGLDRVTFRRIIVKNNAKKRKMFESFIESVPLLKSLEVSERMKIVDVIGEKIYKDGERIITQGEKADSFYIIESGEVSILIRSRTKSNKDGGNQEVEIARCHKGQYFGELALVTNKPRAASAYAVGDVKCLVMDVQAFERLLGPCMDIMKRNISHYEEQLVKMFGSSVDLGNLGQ

B1: AKAP18δ-CFP fusion protein (other)
chain: MERPAAGEIDANKCDHLSRGEEGTGDLETSPVGSLADLPFAAVDIQDDCGLPDVPQGNVPQGNPKRSKENRGDRNDHVKKRKKAKKDYQPNYFLSIPITNKKITAGIKVLQNSILRQDNRLTKAMVGDGSFHITLLVMQLLNEDEVNIGTDALLELKPFVEEILEGKHLTLPFHGIGTFQGQVGFVKLADGDHVSALLEIAETAKRTFQEKGILAGESRTFKPHLTFMKLSKAPMLWKKGVRKIEPGLYEQFIDHRFGEEILYQIDLCSMLKKKQSNGYYHCESSIVIGEKDRKEPEDAELVRLSKRLVENAVLKAVQQYLEETQNKKQPGEGNSVKAEEGDRNGDGSDNNRK
notes: Expressed inside transfected HEK293 or CD8 cells (diffuse, cytosolic); also called AKAP186; AKAP188; not shown: cyan-fluorescent protein (CFP) encoded by vector pECFP (BD Biosciences Clontech)
In the case of B1, the “535/480 ratio (FRET signal) prior to addition of S-Ht31” value was ~1.3.
